According to the RNAGym collection of RNA variant scans (doi:10.1093/molbev/msab373):

B1: Azoarcus group I ribozyme (parent)
chain: GUGCCUUGCGCCGGGAAACCACGCAAGGGAUGGUGUCAAAUUCGGCGAAACCUAAGCGCCCGCCCGGGCGUAUGGCAACGCCGAGCCAAGCUUCGGCGCCUGCGCCGAUGAAGGUGUAGAGACUAGACGGCACCCACCUAAGGCAAACGCUAUGGUGAAGGCAUAGUCCAGGGAGUGGCGAAAGUCACACAAACCGG

Variants of: B1
Experiment: reverse-splicing fitness (ratio to wild type); higher = more active; in vitro selection; Mg2+ level not given
In short: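 An in vitro group I ribozyme library with randomized positions was T7-transcribed and gel-purified. In triplicate, 10 pmol RNA in EPPS pH 7.5 was reacted with 50 pmoles of a 30-nt RNA substrate for 1 h at 37 °C across several added MgCl2 levels (1–48 mM), then stopped with EDTA. Products were reverse transcribed from a substrate-complementary primer, PCR-amplified and sequenced (HiSeq 4000). Fitness is a variant's read proportion after selection over that before, normalised to wild type.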

Compared with C82A A111G A120U A145C C150U U176C, C82A A111G A120U A145C C150U U176G is lower in reverse-splicing fitness: 0.00422 for the first, 0.00292 for the second.

Compared with C82A A111G A120U A145C C169A, C82A A111G A120U A145C C169A U176A is higher in reverse-splicing fitness: 0.00203 for the first, 0.00258 for the second.

Compared with C82A A111G A120U A145C C169A U176C, C82A A111G A120U A145C C169A U176G is lower in reverse-splicing fitness: 0.00231 for the first, 0.00163 for the second.

Going from C82A A111G A120U A145C C169G to C82A A111G A120U A145C C169G U176A, the reverse-splicing fitness falls from 0.00315 to 0.00249.

Going from C82A A111G A120U A145C C169G U176C to C82A A111G A120U A145C C169G U176G, the reverse-splicing fitness falls from 0.00189 to 0.00175.

First: C82A A111G A120U A145C C169U
Second: C82A A111G A120U A145C C169U U176A
The reverse-splicing fitness of the first is higher: 0.00349 for the first, 0.00302 for the second.

Compared with C82A A111G A120U A145C C169U U176C, C82A A111G A120U A145C C169U U176G is lower in reverse-splicing fitness: 0.00282 for the first, 0.00153 for the second.

Going from C82A A111G A120U A145C U176A to C82A A111G A120U A145C U176C, the reverse-splicing fitness rises from 0.00841 to 0.0111.

Compared with C82A A111G A120U A145C U176G, C82A A111G A120U A145G is higher in reverse-splicing fitness: 0.00284 for the first, 0.0318 for the second.

First: C82A A111G A120U A145G C150A
Second: C82A A111G A120U A145G C150A C169A
The reverse-splicing fitness of the first is higher: 0.00991 for the first, 0.00676 for the second.

Going from C82A A111G A120U A145G C150A C169A U176A to C82A A111G A120U A145G C150A C169A U176C, the reverse-splicing fitness falls from 0.00865 to 0.0046.

Going from C82A A111G A120U A145G C150A C169A U176G to C82A A111G A120U A145G C150A C169G, the reverse-splicing fitness rises from 0.00291 to 0.00666.

Compared with C82A A111G A120U A145G C150A C169G U176A, C82A A111G A120U A145G C150A C169G U176C is lower in reverse-splicing fitness: 0.015 for the first, 0.00705 for the second.

First: C82A A111G A120U A145G C150A C169G U176G
Second: C82A A111G A120U A145G C150A C169U
The reverse-splicing fitness of the first is lower: 0.00282 for the first, 0.00455 for the second.

Going from C82A A111G A120U A145G C150A C169U U176A to C82A A111G A120U A145G C150A C169U U176C, the reverse-splicing fitness rises from 0.0049 to 0.00493.

First: C82A A111G A120U A145G C150A C169U U176G
Second: C82A A111G A120U A145G C150A U176A
The reverse-splicing fitness of the first is lower: 0.00288 for the first, 0.00782 for the second.

Compared with C82A A111G A120U A145G C150A U176C, C82A A111G A120U A145G C150A U176G is lower in reverse-splicing fitness: 0.00808 for the first, 0.00419 for the second.

Compared with C82A A111G A120U A145G C150G, C82A A111G A120U A145G C150G C169A is lower in reverse-splicing fitness: 0.00855 for the first, 0.00837 for the second.

Compared with C82A A111G A120U A145G C150G C169A U176A, C82A A111G A120U A145G C150G C169A U176C is lower in reverse-splicing fitness: 0.0108 for the first, 0.00953 for the second.

First: C82A A111G A120U A145G C150G C169A U176G
Second: C82A A111G A120U A145G C150G C169G
The reverse-splicing fitness of the first is lower: 0.00369 for the first, 0.00653 for the second.

First: C82A A111G A120U A145G C150G C169G U176A
Second: C82A A111G A120U A145G C150G C169G U176C
The reverse-splicing fitness of the first is higher: 0.00925 for the first, 0.00646 for the second.

Compared with C82A A111G A120U A145G C150G C169G U176G, C82A A111G A120U A145G C150G C169U is higher in reverse-splicing fitness: 0.00316 for the first, 0.00766 for the second.

First: C82A A111G A120U A145G C150G C169U U176A
Second: C82A A111G A120U A145G C150G C169U U176C
The reverse-splicing fitness of the first is lower: 0.00739 for the first, 0.00796 for the second.

Compared with C82A A111G A120U A145G C150G C169U U176G, C82A A111G A120U A145G C150G U176A is higher in reverse-splicing fitness: 0.00328 for the first, 0.00592 for the second.

Going from C82A A111G A120U A145G C150G U176C to C82A A111G A120U A145G C150G U176G, the reverse-splicing fitness falls from 0.00835 to 0.00403.

Compared with C82A A111G A120U A145G C150U, C82A A111G A120U A145G C150U C169A is lower in reverse-splicing fitness: 0.0257 for the first, 0.00667 for the second.

First: C82A A111G A120U A145G C150U C169A U176A
Second: C82A A111G A120U A145G C150U C169A U176C
The reverse-splicing fitness of the first is higher: 0.00727 for the first, 0.0045 for the second.

Compared with C82A A111G A120U A145G C150U C169A U176G, C82A A111G A120U A145G C150U C169G is higher in reverse-splicing fitness: 0.00232 for the first, 0.00703 for the second.

Compared with C82A A111G A120U A145G C150U C169G U176A, C82A A111G A120U A145G C150U C169G U176C is lower in reverse-splicing fitness: 0.0115 for the first, 0.00643 for the second.

Going from C82A A111G A120U A145G C150U C169G U176G to C82A A111G A120U A145G C150U C169U, the reverse-splicing fitness rises from 0.00249 to 0.00572.

Going from C82A A111G A120U A145G C150U C169U U176A to C82A A111G A120U A145G C150U C169U U176C, the reverse-splicing fitness falls from 0.00523 to 0.00442.

First: C82A A111G A120U A145G C150U C169U U176G
Second: C82A A111G A120U A145G C150U U176A
The reverse-splicing fitness of the first is lower: 0.00242 for the first, 0.0096 for the second.

Going from C82A A111G A120U A145G C150U U176C to C82A A111G A120U A145G C150U U176G, the reverse-splicing fitness falls from 0.0133 to 0.00409.

Compared with C82A A111G A120U A145G C169A, C82A A111G A120U A145G C169A U176A is higher in reverse-splicing fitness: 0.00307 for the first, 0.0033 for the second.

Compared with C82A A111G A120U A145G C169A U176C, C82A A111G A120U A145G C169A U176G is lower in reverse-splicing fitness: 0.00333 for the first, 0.002 for the second.

Going from C82A A111G A120U A145G C169G to C82A A111G A120U A145G C169G U176A, the reverse-splicing fitness falls from 0.00402 to 0.00375.

First: C82A A111G A120U A145G C169G U176C
Second: C82A A111G A120U A145G C169G U176G
The reverse-splicing fitness of the first is higher: 0.00421 for the first, 0.00191 for the second.

Compared with C82A A111G A120U A145G C169U, C82A A111G A120U A145G C169U U176A is lower in reverse-splicing fitness: 0.00421 for the first, 0.00366 for the second.

Going from C82A A111G A120U A145G C169U U176C to C82A A111G A120U A145G C169U U176G, the reverse-splicing fitness falls from 0.00338 to 0.00173.

First: C82A A111G A120U A145G U176A
Second: C82A A111G A120U A145G U176C
The reverse-splicing fitness of the first is lower: 0.00959 for the first, 0.0165 for the second.

First: C82A A111G A120U A145G U176G
Second: C82A A111G A120U A145U
The reverse-splicing fitness of the first is lower: 0.00317 for the first, 0.0342 for the second.

Compared with C82A A111G A120U A145U C150A, C82A A111G A120U A145U C150A C169A is lower in reverse-splicing fitness: 0.00648 for the first, 0.00209 for the second.
